Reference: patent US20220298218A1 (ANTAG THERAPEUTICS, published 2022)
*1 amine or outer side, *2 acyl side, *3 side chain or, on linkers, in order; H or OH if unused. Where no end group is shown, it is not given here. Side-chain parts run from the residue outwards. The star is where a group is joined. C18 diacid = O=C(O)CCCCCCCCCCCCCCCCC(=O)*; C16 diacid = O=C(O)CCCCCCCCCCCCCCC(=O)*; γGlu = O=C(O)[C@H](CCC(=O)[*:2])N[*:1]; AEEA = NCCOCCOCC(=O)O

T1: human GIP receptor (human, UniProt P48546 22-466)
T1 sequence (looked up): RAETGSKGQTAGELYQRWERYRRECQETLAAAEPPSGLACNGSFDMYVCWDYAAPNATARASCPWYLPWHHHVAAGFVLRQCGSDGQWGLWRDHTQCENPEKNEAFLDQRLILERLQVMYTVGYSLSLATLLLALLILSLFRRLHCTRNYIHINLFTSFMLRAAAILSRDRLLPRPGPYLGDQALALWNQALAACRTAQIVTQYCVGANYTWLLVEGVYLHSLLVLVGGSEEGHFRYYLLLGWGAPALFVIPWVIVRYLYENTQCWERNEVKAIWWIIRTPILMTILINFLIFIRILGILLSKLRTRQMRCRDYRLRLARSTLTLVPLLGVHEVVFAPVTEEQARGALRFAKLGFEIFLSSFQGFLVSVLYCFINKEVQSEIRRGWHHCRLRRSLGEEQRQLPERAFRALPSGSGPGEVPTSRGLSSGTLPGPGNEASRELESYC

B1: AT629 (peptide)
peptide: EGTFISDYSIAMDKIK([AEEA-AEEA-γGlu-C16 diacid])QQDFVNWLLAQKPSSGAPPPS-OH
modifications: N-terminus assumed
SMILES: CC[C@H](C)[C@H](NC(=O)[C@H](CO)NC(=O)[C@H](Cc1ccc(O)cc1)NC(=O)[C@H](CC(=O)O)NC(=O)[C@H](CO)NC(=O)[C@@H](NC(=O)[C@H](Cc1ccccc1)NC(=O)[C@@H](NC(=O)CNC(=O)[C@@H](N)CCC(=O)O)[C@@H](C)O)[C@@H](C)CC)C(=O)N[C@@H](C)C(=O)N[C@@H](CCSC)C(=O)N[C@@H](CC(=O)O)C(=O)N[C@@H](CCCCN)C(=O)N[C@H](C(=O)N[C@@H](CCCCNC(=O)COCCOCCNC(=O)COCCOCCNC(=O)CC[C@H](NC(=O)CCCCCCCCCCCCCCC(=O)O)C(=O)O)C(=O)N[C@@H](CCC(N)=O)C(=O)N[C@@H](CCC(N)=O)C(=O)N[C@@H](CC(=O)O)C(=O)N[C@@H](Cc1ccccc1)C(=O)N[C@H](C(=O)N[C@@H](CC(N)=O)C(=O)N[C@@H](Cc1c[nH]c2ccccc12)C(=O)N[C@@H](CC(C)C)C(=O)N[C@@H](CC(C)C)C(=O)N[C@@H](C)C(=O)N[C@@H](CCC(N)=O)C(=O)N[C@@H](CCCCN)C(=O)N1CCC[C@H]1C(=O)N[C@@H](CO)C(=O)N[C@@H](CO)C(=O)NCC(=O)N[C@@H](C)C(=O)N1CCC[C@H]1C(=O)N1CCC[C@H]1C(=O)N1CCC[C@H]1C(=O)N[C@@H](CO)C(=O)O)C(C)C)[C@@H](C)CC
B2: AT627 (peptide)
peptide: EGTFISDYSIAMDKIK(C18 diacid)QQDFVNWLLAQKPSSGAPPPS-OH
modifications: N-terminus assumed
SMILES: CC[C@H](C)[C@H](NC(=O)[C@H](CO)NC(=O)[C@H](Cc1ccc(O)cc1)NC(=O)[C@H](CC(=O)O)NC(=O)[C@H](CO)NC(=O)[C@@H](NC(=O)[C@H](Cc1ccccc1)NC(=O)[C@@H](NC(=O)CNC(=O)[C@@H](N)CCC(=O)O)[C@@H](C)O)[C@@H](C)CC)C(=O)N[C@@H](C)C(=O)N[C@@H](CCSC)C(=O)N[C@@H](CC(=O)O)C(=O)N[C@@H](CCCCN)C(=O)N[C@H](C(=O)N[C@@H](CCCCNC(=O)CCCCCCCCCCCCCCCCC(=O)O)C(=O)N[C@@H](CCC(N)=O)C(=O)N[C@@H](CCC(N)=O)C(=O)N[C@@H](CC(=O)O)C(=O)N[C@@H](Cc1ccccc1)C(=O)N[C@H](C(=O)N[C@@H](CC(N)=O)C(=O)N[C@@H](Cc1c[nH]c2ccccc12)C(=O)N[C@@H](CC(C)C)C(=O)N[C@@H](CC(C)C)C(=O)N[C@@H](C)C(=O)N[C@@H](CCC(N)=O)C(=O)N[C@@H](CCCCN)C(=O)N1CCC[C@H]1C(=O)N[C@@H](CO)C(=O)N[C@@H](CO)C(=O)NCC(=O)N[C@@H](C)C(=O)N1CCC[C@H]1C(=O)N1CCC[C@H]1C(=O)N1CCC[C@H]1C(=O)N[C@@H](CO)C(=O)O)C(C)C)[C@@H](C)CC

Molecular target: T1, human GIP receptor
Assay: cell-based or functional assay

Binder | cAMP agonism % Emax [%] | cAMP antagonism [nM] | cAMP antagonism % inhib [%] | cAMP antagonism pIC50
EGTFISDYSIAMDKIK(C18)QQDFVNWLLAQKPSSGAPPPS-OH [AT628] | 0 | 58.4 | 94 | 7.2
B1 | 0 | 17.1 | 93 | 7.8
B2 | 0 | 15.9 | 97 | 7.8
